{"source": "patent US9028816", "about": "(Ablynx, dated 2015)", "key": {"[1]": {"biological_target": "T1, human von Willebrand factor (vWF) (human, UniProt P04275 764-2813)", "T1 construct": "also called Human vWF", "assay": "ELISA: coated vWF, purified vWF A1-specific VHH, as in Example 7 (Example 20)"}, "collagen type I": {"biological_target": "T2, collagen type I", "T2 construct": "coated on the microtiter plate", "assay": "ELISA: collagen type I coated at 25 µg/ml, purified VHH in twofold dilutions, detection as in Example 7 (Example 34) [collagen type I]"}, "pig serum albumin": {"biological_target": "pig serum albumin (pig, UniProt P08835 25-607)", "sequence (P08835 25-607 limits assumed)": "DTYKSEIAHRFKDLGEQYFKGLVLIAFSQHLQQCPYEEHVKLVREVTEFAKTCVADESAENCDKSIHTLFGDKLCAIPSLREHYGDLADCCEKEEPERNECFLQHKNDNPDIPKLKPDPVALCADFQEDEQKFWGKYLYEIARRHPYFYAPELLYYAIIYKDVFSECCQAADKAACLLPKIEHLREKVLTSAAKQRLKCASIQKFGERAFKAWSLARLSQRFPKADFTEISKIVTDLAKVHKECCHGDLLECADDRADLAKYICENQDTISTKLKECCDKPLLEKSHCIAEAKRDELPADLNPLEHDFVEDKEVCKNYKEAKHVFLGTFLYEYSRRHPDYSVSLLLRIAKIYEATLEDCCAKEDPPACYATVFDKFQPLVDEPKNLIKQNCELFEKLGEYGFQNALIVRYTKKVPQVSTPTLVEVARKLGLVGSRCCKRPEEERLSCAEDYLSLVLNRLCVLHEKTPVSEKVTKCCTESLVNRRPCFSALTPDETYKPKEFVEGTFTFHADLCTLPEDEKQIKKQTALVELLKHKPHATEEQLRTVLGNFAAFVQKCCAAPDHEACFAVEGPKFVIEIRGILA", "assay": "phage on blotted plasma (1/10)"}, "[2]": {"biological_target": "human serum albumin (HSA) (human, UniProt P02768 25-609)", "assay": "phage on blotted plasma (1/10)"}, "[3]": {"biological_target": "T3, mouse serum albumin (MSA) (mouse, UniProt P07724 25-608)", "T3 construct": "also called mouse albumin", "T3 sequence (P07724 25-608 limits assumed)": "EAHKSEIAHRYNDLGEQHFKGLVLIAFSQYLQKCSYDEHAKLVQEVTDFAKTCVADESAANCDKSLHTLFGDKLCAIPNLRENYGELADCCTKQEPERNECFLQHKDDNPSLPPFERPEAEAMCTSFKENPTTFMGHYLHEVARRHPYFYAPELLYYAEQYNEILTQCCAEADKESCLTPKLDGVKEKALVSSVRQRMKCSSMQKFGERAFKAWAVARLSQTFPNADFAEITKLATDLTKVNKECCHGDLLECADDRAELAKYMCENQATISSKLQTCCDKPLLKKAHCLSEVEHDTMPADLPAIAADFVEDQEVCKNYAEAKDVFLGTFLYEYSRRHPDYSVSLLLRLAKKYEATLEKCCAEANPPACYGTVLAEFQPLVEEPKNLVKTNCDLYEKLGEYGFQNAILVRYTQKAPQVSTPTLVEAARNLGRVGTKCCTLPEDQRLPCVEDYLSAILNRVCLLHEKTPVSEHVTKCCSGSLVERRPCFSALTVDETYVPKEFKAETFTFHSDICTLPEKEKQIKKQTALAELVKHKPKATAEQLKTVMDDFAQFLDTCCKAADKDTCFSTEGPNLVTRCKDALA", "assay": "ELISA: MSA coated at 5 µg/ml, purified nanobody in 1/3 dilutions, detection with rabbit anti-nanobody serum and anti-rabbit alkaline phosphatase, PNPP (Example 50)"}}}
{"binder": "Z29 (VHH) VHH: QVQLQESGGGSVQAGDSLTLSCAASGRTFSMHAMGWFRQAPGKEREFVAAISPSAFTEYADSLKGRFTVSRDNAKKLVWLQMNGLKPEDTAAYYCAARRGAFTATTAPLYDYWGQGTQVTVSS", "values": [{"measurement": "EC50 (read off the curve)", "setting": "[1]", "value": "~0.07", "unit": "µM"}]}
{"binder": "3L-41 (VHH) VHH: QVQLQDSGGGLVQAGGSLRLSCAASGRTFRRYAMGWYRQAPGKQRVLVAAITSNGRPSVADSVKGRFTISSDTAKNTVYLQMNSLKPEDTALYYCTLYNTSADYYNQSPSSWGQGTQVTVLS", "values": [{"measurement": "EC50 (read off the curve)", "setting": "collagen type I", "value": "~0.01", "unit": "µM"}]}
{"binder": "MSA24 (VHH) VHH: QVQLQESGGGLVQPGNSLRLSCAASGFTFRNFGMSWVRQAPGKEPEWVSSISGSGSNTIYADSVKDRFTISRDNAKSTLYLQMNSLKPEDTAVYYCTIGGSLSRSSQGTQVTVSS", "values": [{"measurement": "binding result", "setting": "pig serum albumin", "value": "binds"}, {"measurement": "binding result", "setting": "[2]", "value": "binds"}, {"measurement": "EC50 (read off the curve)", "setting": "[3]", "value": "~0.0006", "unit": "µM"}]}
{"binder": "3P1-31 (VHH) VHH: QVQLQESGGGLVQAGGSLRLSCAASGRTFRRYAMGWYRQAPGKQRELVAAITSGGRTSVADTVKGRFTISSDNAKNTVYLQMNSLKPEDAAVYYCTLYNSTTNYYNQSPSSWGQGTQVTVSS", "values": [{"measurement": "EC50 (read off the curve)", "setting": "collagen type I", "value": "~0.2", "unit": "µM"}]}
